Assay results as given in the supplement of paper PMC7877785.
± gives the uncertainty stated by the source.

Assay: self-splicing fitness, log relative to wild type (ln ratio); higher = more splicing; Tetrahymena group I intron in knt gene, E. coli kanamycin selection, DiMSum; sequences stand for … in CUCUCU…GGAGGGAAAAGUUAUCAGGCAUGCACCUGGUAGCUAGUCUUUAAACCAAUAGAUUGCAUCGGUUUAAAAGGCAAGACCGUCAAAUUGCGGGAAAGGGGUCAACAGCCGUUCAGUACCAAGUCUCAGGGGAAACUUUGAGAUGGCCUUGCAAAGGGUAUGGUAAUAAGCUGACGGACAUGGUCCUAACCACGCAGCCAAGUCCUAAGUCAACAGAUCUUCUGUUGAUAUGGAUGCAGUUCACAGACUAAAUGUCGGUCGGGGAAGAUGUAUUCUUCUCAUAAGAUAUAGUCGGACCUCUCCUUAAUGGGAGCUAGCGGAUGAAGUGAUGCAACACUGGAGCCGCUGGGAACUAAUUUGUAUGCGAAAGUAUAUUGAUUAGUUUUGGAGUACUCGUGGUCG
Method in brief: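 A randomised library covering all eight P1ex-region intron nucleotides was built with the intron in the knt kanamycin-resistance gene on pET-22b(+) and held in E. coli BL21(DE3). Cells were grown overnight at 37°C or 30°C on LB agar, with or without 25 μg/mL kanamycin, plus 100 μg/mL carbenicillin, 50 μM IPTG and 0.2% rhamnose, and pooled colonies were amplicon-sequenced on an Illumina HiSeq 2500. DiMSum fitness is the error-weighted combination of wild-type-normalised replicate fold changes, kanamycin versus none.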

Sequence	self-splicing fitness (ln) (30 °C)	self-splicing fitness (ln) (37 °C)
CUAAAGCAAUAUUACGGUCC	-4.33 ± 0.47	-2.2 ± 0.35
CUAAAGCAAUAUUACGUAAC	-2.86 ± 0.12	-1.62 ± 0.12
CUAAAGCAAUAUUACGUCGA	–	-1.99 ± 0.2
CUAAAGCAAUAUUACGUCUC	–	-1.93 ± 0.46
CUAAAGCAAUAUUACGUGCA	-2.77 ± 0.2	-1.91 ± 0.18
CUAAAGCAAUAUUACGUGCC	-4.57 ± 0.29	-2.25 ± 0.18
CUAAAGCAAUAUUACGUGGU	-3.41 ± 0.12	-2.73 ± 0.15
CUAAAGCAAUAUUACGUGUA	-3.82 ± 0.19	-3.2 ± 0.23
CUACAGCAAUAUUACGACCG	0.86 ± 0.11	-0.315 ± 0.14
CUACAGCAAUAUUACGAGAA	-2.84 ± 0.46	-1.92 ± 0.28
CUACAGCAAUAUUACGAGUU	-4.98 ± 0.2	-2.76 ± 0.17
CUACAGCAAUAUUACGCAUA	-3.32 ± 0.24	-2.28 ± 0.2
CUACAGCAAUAUUACGCCCC	-2.86 ± 0.41	-1.4 ± 0.35
CUACAGCAAUAUUACGCUAG	-3.58 ± 0.18	-2.36 ± 0.23
CUACAGCAAUAUUACGCUGU	-3.9 ± 0.2	-2.8 ± 0.22
CUACAGCAAUAUUACGCUUG	-2.37 ± 0.15	-2.26 ± 0.16
CUACAGCAAUAUUACGGCUC	-3.53 ± 0.23	-1.8 ± 0.31
CUACAGCAAUAUUACGGUAG	-3.39 ± 0.15	-3.06 ± 0.23
CUACAGCAAUAUUACGGUCA	-3.37 ± 0.28	-1.96 ± 0.24
CUACAGCAAUAUUACGUAAG	-1.14 ± 0.068	-0.424 ± 0.092
CUACAGCAAUAUUACGUACG	-0.289 ± 0.088	0.18 ± 0.099
CUACAGCAAUAUUACGUCAC	-3.35 ± 0.36	-2.13 ± 0.18
CUACAGCAAUAUUACGUCGU	-3.3 ± 0.35	-2.83 ± 0.25
CUACAGCAAUAUUACGUGCC	-2.73 ± 0.26	-2.39 ± 0.38
CUACAGCAAUAUUACGUGGA	-2.58 ± 0.12	-3.11 ± 0.21

Sequence	self-splicing fitness (ln) (30 °C)	self-splicing fitness (ln) (37 °C)
CUACAGCAAUAUUACGUUAC	-4.4 ± 0.26	-3.72 ± 0.33
CUACAGCAAUAUUACGUUAU	-3.96 ± 0.13	-2.79 ± 0.15
CUACAGCAAUAUUACGUUUG	-0.766 ± 0.04	-0.34 ± 0.06
CUAGAGCAAUAUUACGACAC	-3.9 ± 0.39	-2.63 ± 0.48
CUAGAGCAAUAUUACGACUC	–	-1.39 ± 0.48
CUAGAGCAAUAUUACGCCAC	–	-3.44 ± 0.47
CUAGAGCAAUAUUACGCCUA	-2.2 ± 0.14	-1.15 ± 0.12
CUAGAGCAAUAUUACGCGCC	-2.12 ± 0.38	–
CUAGAGCAAUAUUACGCGCU	-3.47 ± 0.23	-2.19 ± 0.27
CUAGAGCAAUAUUACGCUAG	-3.78 ± 0.34	-2.49 ± 0.28
CUAGAGCAAUAUUACGCUUG	-3.03 ± 0.21	-1.83 ± 0.23
CUAGAGCAAUAUUACGGCAU	-3.75 ± 0.19	-2.75 ± 0.28
CUAGAGCAAUAUUACGGCUG	0.203 ± 0.11	-0.255 ± 0.14
CUAGAGCAAUAUUACGGUCA	-3.55 ± 0.23	-2.47 ± 0.44
CUAGAGCAAUAUUACGGUUA	-3.66 ± 0.24	-3.14 ± 0.4
CUAGAGCAAUAUUACGUAAG	-0.628 ± 0.06	0.154 ± 0.089
CUAGAGCAAUAUUACGUACC	-4.52 ± 0.24	-3.09 ± 0.35
CUAGAGCAAUAUUACGUGCC	-2.84 ± 0.24	-1.41 ± 0.24
CUAGAGCAAUAUUACGUUCC	–	0.291 ± 0.28
CUAGAGCAAUAUUACGUUGC	-3.14 ± 0.32	-2.18 ± 0.44
CUAGAGCAAUAUUACGUUGG	-1.71 ± 0.11	-0.638 ± 0.13
CUAGAGCAAUAUUACGUUUC	-4.04 ± 0.31	-2.01 ± 0.28
CUAGAGCAAUAUUACGUUUG	-1.33 ± 0.088	-0.528 ± 0.1
CUAUAGCAAUAUUACGAACU	-3.67 ± 0.43	–
CUAUAGCAAUAUUACGAAUC	-2.05 ± 0.36	-1.9 ± 0.33

Sequence	self-splicing fitness (ln) (30 °C)	self-splicing fitness (ln) (37 °C)
CUAUAGCAAUAUUACGAAUG	-0.481 ± 0.087	0.0255 ± 0.12
CUAUAGCAAUAUUACGACAU	-4.157 ± 0.031	-3.08 ± 0.045
CUAUAGCAAUAUUACGACUU	-2.98 ± 0.3	-1.54 ± 0.34
CUAUAGCAAUAUUACGAUGU	-3.67 ± 0.4	-3.04 ± 0.43
CUAUAGCAAUAUUACGCAUA	-3.93 ± 0.29	-2.68 ± 0.24
CUAUAGCAAUAUUACGCGAA	-3.27 ± 0.2	-3.06 ± 0.33
CUAUAGCAAUAUUACGCGCG	-0.981 ± 0.2	0.458 ± 0.25
CUAUAGCAAUAUUACGCGUC	-3.97 ± 0.34	-2.71 ± 0.25
CUAUAGCAAUAUUACGUAAC	-1.97 ± 0.42	–
CUAUAGCAAUAUUACGUAAU	-2.07 ± 0.16	-3.88 ± 0.36
CUAUAGCAAUAUUACGUACG	0.0512 ± 0.15	-0.136 ± 0.14
CUAUAGCAAUAUUACGUCCU	-3.39 ± 0.22	-2.7 ± 0.29
CUCAAGCAAUAUUACGAAUG	-2.96 ± 0.15	-1.66 ± 0.2
CUCAAGCAAUAUUACGACCG	-1.26 ± 0.12	-0.638 ± 0.16
CUCAAGCAAUAUUACGAUCA	-1.3 ± 0.3	-1.09 ± 0.2
CUCAAGCAAUAUUACGCGAG	-2.5 ± 0.2	-3.14 ± 0.3
CUCAAGCAAUAUUACGCGCG	-3.19 ± 0.18	-2.41 ± 0.29
CUCAAGCAAUAUUACGCGUU	-4.07 ± 0.46	-2.92 ± 0.3
CUCAAGCAAUAUUACGGAGC	-3.11 ± 0.11	-2.54 ± 0.14
CUCAAGCAAUAUUACGGAUA	-2.72 ± 0.24	-2.32 ± 0.28
CUCAAGCAAUAUUACGGCUA	–	-2.22 ± 0.35
CUCAAGCAAUAUUACGGGAA	-2.51 ± 0.16	-1.19 ± 0.14
CUCAAGCAAUAUUACGGGCC	-4.15 ± 0.35	-2.78 ± 0.36
CUCAAGCAAUAUUACGGUAA	-1.8 ± 0.27	-1.66 ± 0.18
CUCAAGCAAUAUUACGUAAC	-4.43 ± 0.19	-2.08 ± 0.15

Sequence	self-splicing fitness (ln) (30 °C)	self-splicing fitness (ln) (37 °C)
CUCAAGCAAUAUUACGUCCU	-4 ± 0.27	-2.79 ± 0.19
CUCAAGCAAUAUUACGUCGA	-3.37 ± 0.31	-1.41 ± 0.18
CUCAAGCAAUAUUACGUUCC	-3.08 ± 0.32	-2.32 ± 0.26
CUCCAGCAAUAUUACGAACC	-3.49 ± 0.26	-1.91 ± 0.32
CUCCAGCAAUAUUACGAGAA	-2.14 ± 0.38	-1.91 ± 0.31
CUCCAGCAAUAUUACGAGUG	-2.45 ± 0.11	-1.34 ± 0.11
CUCCAGCAAUAUUACGAUGA	-2.36 ± 0.25	-2.7 ± 0.27
CUCCAGCAAUAUUACGCAUU	-3.38 ± 0.13	-3.51 ± 0.23
CUCCAGCAAUAUUACGCCCC	-4.17 ± 0.46	–
CUCCAGCAAUAUUACGGCAA	-3.55 ± 0.17	-2.71 ± 0.16
CUCCAGCAAUAUUACGGCGG	-4.65 ± 0.28	-3.1 ± 0.22
CUCCAGCAAUAUUACGGUGG	-3.79 ± 0.19	-2.42 ± 0.18
CUCCAGCAAUAUUACGGUUC	-2.51 ± 0.17	-3.19 ± 0.35
CUCCAGCAAUAUUACGUAAA	-3.45 ± 0.17	-2.17 ± 0.18
CUCCAGCAAUAUUACGUAGA	-3.31 ± 0.15	-2.58 ± 0.16
CUCCAGCAAUAUUACGUAGG	-2.92 ± 0.11	-1.9 ± 0.15
CUCCAGCAAUAUUACGUCGG	-3.14 ± 0.15	-2.36 ± 0.15
CUCCAGCAAUAUUACGUGUG	-2.17 ± 0.069	-1.5 ± 0.08
CUCCAGCAAUAUUACGUUCC	-4.23 ± 0.46	-1.99 ± 0.35
CUCCAGCAAUAUUACGUUGG	-3.68 ± 0.19	-2.49 ± 0.21
CUCGAGCAAUAUUACGAGAU	-2.87 ± 0.23	-2.76 ± 0.27
CUCGAGCAAUAUUACGAGCG	-3.66 ± 0.43	-2.84 ± 0.25
CUCGAGCAAUAUUACGAGGA	-1.94 ± 0.26	–
